Experimental data from patent US20240317847A1 (Bayer, published 2024).

B1: TPP-18068 (antibody, mouse IgG1)
heavy: EVQLLESGGGLVQPGGSLRLSCAASGFTFSSYGMHWVRQAPGKGLEWVSVISYDGSYKYYADSVKGRFTISRDNSKNTLYLQMNSLRAEDTAVYYCAAGVPDYWGQGTLVTVSSAKTTPPSVYPLAPGSAAQTNSMVTLGCLVKGYFPEPVTVTWNSGSLSSGVHTFPAVLQSDLYTLSSSVTVPSSTWPSETVTCNVAHPASSTKVDKKIVPRDCGCKPCICTVPEVSSVFIFPPKPKDVLTITLTPKVTCVVVDISKDDPEVQFSWFVDDVEVHTAQTQPREEQFNSTFRSVSELPIMHQDWLNGKEFKCRVNSAAFPAPIEKTISKTKGRPKAPQVYTIPPPKEQMAKDKVSLTCMITDFFPEDITVEWQWNGQPAENYKNTQPIMDTDGSYFVYSKLNVQKSNWEAGNTFTCSVLHEGLHNHHTEKSLSHSPGK
light: QSVLTQPPSASGTPGQRVTISCTGSSSNIGAGYDVHWYQQLPGTAPKLLIYSNNERPSGVPDRFSGSKSGTSASLAISGLRSEDEADYYCAAWDDSLNGPVFGGGTKLTVLGQPKSSPSVTLFPPSSEELETNKATLVCTITDFYPGVVTVDWKVDGTPVTQGMETTQPSKQSNNKYMASSYLTLTARAWERHSSYSCQVTHEGHTVEKSLSRADCS
notes: mIgG1, Lambda
B2: TPP-18063 (antibody, mouse IgG1, V domains shown)
VH: EVQLLESGGGLVQPGGSLRLSCAASGFTFSDYYMSWIRQAPGKGLEWVSGINWNGGSTGYADSVKGRFTISRDNSKNTLYLQMNSLRAEDTAVYYCATWDGPFDYWGQGTLVTVSS
VL: QSVLTQPPSASGTPGQRVTISCTGSSSNIGAGYDVHWYQQLPGTAPKLLIYYDDLLPSGVPDRFSGSKSGTSASLAISGLRSEDEADYYCQSYDSSLGGSVFGGGTKLTVLG
notes: mIgG1, Lambda

Columns and labels:
[1] = biological target: T1, murine IL-11 (Invigate, e.g., lot #C210819-09) (mouse, UniProt P47873 22-199); test: Tri-complex ELISA: antibody titrated against 8 nM murine IL-11, 2 nM murine gp130-human-Fc and 2 nM murine IL11RA-murine-Fc
T1 construct: Bought protein; biotinylated where captured on streptavidin plates; also called mIL-11; mIL11
T1 sequence: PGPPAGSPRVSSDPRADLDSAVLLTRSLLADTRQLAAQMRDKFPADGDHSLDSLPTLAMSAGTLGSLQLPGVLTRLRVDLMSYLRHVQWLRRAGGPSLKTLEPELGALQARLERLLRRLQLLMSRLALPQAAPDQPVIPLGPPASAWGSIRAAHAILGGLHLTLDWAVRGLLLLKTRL
Procedure: (§1) In the Tri-complex ELISA format IL-11 antibodies are tested for their ability to inhibit the formation of a complex consisting of murine or human gp130-Fc fusion protein, with murine or human IL-11, and a murine IL11RA-Fc fusion protein. The assay format was adapted according to FIG. 18 (a, b), depending on whether murine or human IL-11 IgG antibodies were tested.
(§2) The assay was performed using High Binding microtiter plates (Greiner, #781077). In a first step, 25 μl of goat anti human IgG (Sigma, #12136), diluted 1:1000 in coating buffer (Candor, #121125) was coated on the plate at 4° C. overnight. Next day, the plate was washed one time with 50 μl PBST and then blocked with 50 μl SmartBlock (Candor, #113125) for one hour at room temperature (RT). […] After three additional washes of the coated and blocked microtiter plate with PBS-T, 25 μl of each mixture were added and the assay plate was incubated for one hour at room temperature. After three additional washes, anti-mouse-gp130 biotinylated antibody (R&D, #BAF468) or anti-human gp130 biotinylated antibody (R&D, #BAF228), both 1:1000 in 10% SmartBlock PBS-T, was added and incubated for 1 hour at RT. After three additional washes, a Streptavidin-Peroxidase conjugate (Sigma, #S5512) 1:1000 in SmartBlock PBS-T was added and incubated for one hour at room temperature. After a final three washes, AmplexRed (Fisher Scientific, A12222), 1/1000 in PBS, 0,003% H₂O₂, was added as substrate and incubated for 15 min at RT in the dark. Then, the fluorescence was measured with a plate reader at 535/595 nm. Signals from dose responses were used to calculate IC50 values using GraphPad Prism software.

[2] = biological target: T2, human IL-11 (Invigate, e.g., lot #C121021-19) (human, UniProt P20809 22-199); test: Di-complex ELISA: biotinylated human IL-11 on streptavidin plate, antibody titrated against 2 nM canine IL11RA-human-Fc (competitor)
T2 construct: Bought protein; also called hIL-11; hIL11
T2 sequence: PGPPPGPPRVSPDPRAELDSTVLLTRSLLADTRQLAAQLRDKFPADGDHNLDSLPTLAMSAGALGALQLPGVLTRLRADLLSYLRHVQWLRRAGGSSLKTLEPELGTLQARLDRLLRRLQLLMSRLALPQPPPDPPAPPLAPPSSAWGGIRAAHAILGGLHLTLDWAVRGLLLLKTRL
Procedure: (§3) In the Di-complex ELISA format anti IL-11 antibodies are tested for the ability to interfere with the formation of complexes consisting of immobilized murine IL-11 (Invigate, e.g., lot #C210819-09) or human IL-11 (Invigate, e.g., lot #C121021-19), and murine IL11RA-Fc fusion proteins or canine IL11RA-human-Fc fusion protein (FIG. 17a, b).
(§4) The assay is performed using streptavidin coated microtiter plates (Greiner bio-one, #781997). In a first step, 10 nM biotinylated mouse IL-11 (Invigate, Germany, e.g., lot #C210819-09) or human IL-11 (Invigate, Germany, e.g., lot #C121021-19) is coated in 25 μl PBS on the plate at 4° C. overnight. Next day, the plate is washed three times with 50 μl PBST and then blocked with 50 μl SmartBlock (Candor, #113125) for one hour at room temperature (RT). After additional three washes with PBST, 25 μl of a mixture of the murine anti IL-11 antibody and recombinant canine IL11RA-Fc fusion protein (Sino Biological, #70078-D02H) in PBS-T, 10% Smartblock are added simultaneously to the plate and incubated for one hour at RT. […] After three additional washes with PBS-T, 25 μl anti-human-POD (Sigma, #A0170) in PBS-T, 10% Smartblock is added and incubated for 1 hour at RT. After a final three washes with PBS-T, 25 μl AmplexRed (Fisher Scientific, A12222), 1/1000 in PBS, 0,003% H₂O₂, is added as substrate and incubated for 15 min at RT in the dark. Then, the fluorescence is measured with a plate reader at 535/595 nm. Signals from dose responses were used to calculate IC50 values (GraphPad Prism). Efficacy was calculated as [(signal measured at lowest antibody concentration−signal measured at the highest antibody concentration)×100] divided by (signal measured at lowest antibody concentration−signal measured in the absence of IL11Ra).

[3] = biological target: T1, murine IL-11 (Invigate, e.g., lot …); test: Di-complex ELISA: biotinylated murine IL-11 on streptavidin plate, antibody titrated against 2 nM canine IL11RA-human-Fc (competitor)
Procedure: as §3, §4

[4] = biological target: T2, human IL-11 (Invigate, e.g., lot …); test: cell-based or functional assay
[5] = biological target: T1, murine IL-11 (Invigate, e.g., lot …); test: cell-based or functional assay
[6] = biological target: T2, human IL-11 (Invigate, e.g., lot …); test: Tri-complex ELISA: antibody titrated against 8 nM human IL-11, 2 nM human gp130-human-Fc and 2 nM murine IL11RA-murine-Fc
Procedure: as §1, §2

[7] = biological target: T2, human IL-11 (Invigate, e.g., lot …); test: SPR, Biacore T200, 25 C; antibody captured via anti-mouse Fc, IL-11 as analyte, 1:1 Langmuir fit
Procedure: (§5) Antibodies were captured via anti-mouse Fc IgGs (“Mouse antibody capture kit, Order No. BR100383, Cytiva) covalently amine coupled to a Series S CM5 sensor chip (Cytiva). The amine coupling was carried out according to the manufacturer's instructions using 1-ethyl-3-(3-dimethylaminopropyl) carbodiimide hydrochloride (EDC), N-hydroxysuccinimide (NHS) and ethanolamine HCl, pH 8.5 (“Amine Coupling Kit” BR-1000-50, Cytiva.). Human IL-11 (Invigate, e.g., lot #C121021-19), and murine IL-11 (Invigate, e.g., lot #C210819-09) were used as analytes. […] Based on that experiment an IL-11 concentration range was chosen to optimally determine kinetics and affinity of anti-IL-11 antibodies in multicycle kinetics mode. The sensor surface was regenerated with glycine pH 1.7 after each antigen injection. Obtained sensorgrams were double referenced (subtraction of reference flow cell signal and buffer injection) and were fitted to a 1:1 Langmuir binding model to derive kinetic data using the Biacore T200 Evaluation software or the Biacore Insight software.

[8] = biological target: T1, murine IL-11 (Invigate, e.g., lot …); test: as above
Procedure: as §5

Binder | Efficacy (%) [1] [%] | IC50 [1] [nM] | Efficacy (%) [2] [%] | Efficacy (%) [3] [%] | IC50 [3] [nM] | Efficacy (%), Stat3 reporter gene assay, human IL11RA, 0.78 nM hIL-11 [4] [%] | IC50 [M], Stat3 reporter gene assay, HEK 293F transfected with human IL11RA, 0.78 nM hIL-11 [4] [M] | Efficacy (%), Stat3 reporter gene assay, mouse Il11ra, 3.13 nM mIL-11 [5] [%] | IC50 [M], Stat3 reporter gene assay, HEK 293F transfected with mouse Il11ra, 3.13 nM mIL-11 [5] [M] | Efficacy (%) [6] [%] | Kd [7] [nM] | Kd [8] [nM] | IC50 [2] [nM] | IC50 [6] [nM]
B1 | 37.1 | 66 | 19.6 | 72.7 | 2.5 | 20.7 | 4.83e-09 | 84.1 | 2.67e-09 | 7.3 | 48 | 0.72 | – | –
B2 | 36.3 | 170 | 42 | 68.9 | 12 | 54.3 | 1.1e-07 | 60 | 9.5e-08 | 60.6 | 53 | 10 | 54 | 92
